Where two headings read alike, the source gives them in different places.

Experiment [1] deals with T1, human ActRIIA (human, UniProt P27037 20-135, limits assumed).
T1 construct: antigen in MSD-SET; also called ACVR2A; ActR2A
Kind of experiment: MSD-SET.

In experiment [2] the target is T2, human ActRIIB (human, UniProt Q13705 19-137, limits assumed).
T2 construct: antigen in MSD-SET; also called ACVR2B; ActR2B
T2 sequence: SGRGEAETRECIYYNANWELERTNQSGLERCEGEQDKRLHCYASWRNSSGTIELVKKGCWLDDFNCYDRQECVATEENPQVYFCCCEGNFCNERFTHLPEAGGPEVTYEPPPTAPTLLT
Kind of experiment: MSD-SET.

Experiment [3] addresses T1, human ActRIIA. Kind of experiment: MSD-SET. This is another data set of the same source.
Experiment [4] has as its target T2, human ActRIIB. Description: MSD-SET. The source holds these as a separate data set.
The target of experiment [5] is T1, human ActRIIA. Kind of experiment: MSD-SET, preliminary.
Experiment [6] deals with T2, human ActRIIB. Kind of experiment: MSD-SET, preliminary.
Experiment [7] concerns the target T3, ActRIIA and ActRIIB (on TGFB/SMAD SBE Reporter HEK293 cells) (human). Description: cell-based or functional assay.
Experiment [8] concerns the target T1, human ActRIIA. Kind of experiment: MSD-SET. This is another data set of the same source.
Experiment [9] concerns the target T2, human ActRIIB. Kind of experiment: MSD-SET. The source holds these as a separate data set.
Experiment [10] addresses T3, ActRIIA and ActRIIB (on TGFB/SMAD SBE …). Description: cell-based or functional assay. The source holds these as a separate data set.
In experiment [11] the target is T1, human ActRIIA. Description: MSD-SET, Fab KD over IgG KD.
The target of experiment [12] is T2, human ActRIIB. Description: MSD-SET, Fab KD over IgG KD.
The target of experiment [13] is T2, human ActRIIB. Kind of experiment: MSD-SET. This is another data set of the same source.
Experiment [14] deals with T3, ActRIIA and ActRIIB (on TGFB/SMAD SBE …). Kind of experiment: cell-based or functional assay. The source holds these as a separate data set.
Experiment [15] addresses T2, human ActRIIB. Kind of experiment: MSD-SET. This is another data set of the same source.
Experiment [16] addresses mouse ActRIIA (mouse, UniProt P27038 20-135, limits assumed). Kind of experiment: MSD-SET.
Experiment [17] concerns the target Pig ActRIIA (pig, UniProt F1S0H6 20-135). Kind of experiment: MSD-SET.
Experiment [18] concerns the target Dog ActRIIA (dog, UniProt A0A8I3MYH0 20-135). Kind of experiment: MSD-SET.
Experiment [19] deals with T1, human ActRIIA. Description: MSD-SET. The source holds these as a separate data set.
Experiment [20] has as its target T2, human ActRIIB. Description: MSD-SET. The source holds these as a separate data set.

T1 sequence (P27037 20-135 limits assumed): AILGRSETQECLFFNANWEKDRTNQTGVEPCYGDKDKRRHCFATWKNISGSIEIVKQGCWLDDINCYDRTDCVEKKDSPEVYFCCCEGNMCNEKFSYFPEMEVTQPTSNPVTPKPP
Sequence of mouse ActRIIA (P27038 20-135 limits assumed): as the sequence (P27037 20-135 limits assumed) above, with K20R, V73I counted along it

B1: Antibody Bebballesgmias (antibody, V domains shown)
VH: QVQLVQSGAEVKKPGSSVKVSCKASGYKFTSSYINWVRQAPGQGLEWMGTINPVSGSTSYAQKFQGRVTITADTSTSTAYMELSSLRSEDTAVYYCARGGWFDYWGQGTLVTVSS
VL: QSALTQPRSVSGSPGQSVTISCTGTSSDVGSYNYVNWYQQHPGKAPKLMIYGVSKRPRGVPDRFSGSKSGNTASLTISGLQAEDEADYYCGTFAGGSYYGVFGGGTKLTVL
notes: full-length IgG
With B1, the equilibrium dissociation constant (Kd) in experiment [1] was determined as 0.067 nM; in [2] it was 0.0013 nM; in experiment [3] it was 0.142 nM; in [4], 0.0167 nM; in experiment [5] it was 0.142 nM; in experiment [6], 0.0167 nM. In experiment [7], this molecule registered an IC50, Activin SMAD RGA of 0.171 nM. In [7], the IC50, Myostatin SMAD RGA was determined as 0.181 nM. For the same molecule, in experiment [7], the IC50, myostatin inhibition (SMAD RGA) was found to be 0.171 nM. The IC90, Activin SMAD RGA in [7] turned out to be 2.88 nM. Further, the IC90, Myostatin SMAD RGA in experiment [7] is 1.94 nM.

B2: Fasnetsküchla Fab (Fab, V domains shown)
VH: QVQLVQSGAEVKKPGASVKVSCKASGYTFTSSYINWVRQAPGQGLEWMGTINAVSGSTSYAQKFQGRVTMTRDTSISTAYMELSRLRSDDTAVYYCARGGWFDYWGQGTLVTVSS
VL: QSALTQPASVSGSPGQSITISCTGTSSDVGSANYVNWYQQHPGKAPKPMIYGVSRRPSGVSNRFSGSKSGNTASLTISGLQAEDEADYYCGTFAGGKYYGVFGGGTKLTVL
notes: Fab
In [8], B2 showed a Kd of 0.114 nM. For the same molecule, the Kd in experiment [9] came out at 0.026 nM. In [10], this molecule came in with an IC50, Activin SMAD RGA of 1.21 nM; an IC50, Myostatin SMAD RGA of 2.32 nM; an IC50 fold difference (Fab:IgG), Activin SMAD RGA of 2.8 fold; an IC50 fold difference (Fab:IgG), Myostatin SMAD RGA of 4.8 fold. In addition, the “Fold difference (Fab:IgG)” value in [11] amounted to 3.9 fold. The “Fold difference (Fab:IgG)” value in [12] was found to be 3.1 fold.

B3: Rippla Fab (Fab, V domains shown)
VH: QVQLVQSGAEVRKPGASVKVSCKASGYTFTSSYINWVRQAPGQGLEWMGTINPVSGSTSYAQKFQGRVTMTRDTSISTAYMELSRLRSDDTAVYYCARGGWFDYWGQGTLVTVSS
VL: QSALTQPASVSGSPGQSITISCTGTSSDVGSYNRVNWYQQHPGKAPKLMIYGVSKRESGVSNRFSGSKSGNTASLTISGLQAEDEADYYCGTFAGGRYYGVFGGGTKLTVL
notes: Fab
In turn, B3 came in with a Kd in [8] of 0.157 nM. In addition, the Kd in experiment [9] came out at 0.006 nM. In experiment [10], the IC50, Activin SMAD RGA came to 0.4 nM; the IC50, Myostatin SMAD RGA was 0.78 nM; the IC50 fold difference (Fab:IgG), Activin SMAD RGA stood at 4.6 fold; the IC50 fold difference (Fab:IgG), Myostatin SMAD RGA stood at 5.1 fold. In experiment [11], the “Fold difference (Fab:IgG)” value came to 3.8 fold. In [12], the “Fold difference (Fab:IgG)” value amounted to 1.1 fold.

B4: Antibody Ofaschlupfer (antibody, V domains shown)
VH: QVQLVQSGAEVKKPGSSVKVSCKASGYTFTSSYINWVRQAPGQGLEWMGTINAVSGSTSYAQKFQGRVTITADTSTSTAYMELSSLRSEDTAVYYCARGGWFDYWGQGTLVTVSS
VL: QSALTQPRSVSGSPGQSVTISCTGTSSDVGSKNYVNWYQQHPGKAPKLMIYGVSKRESGVPDRFSGSKSGNTASLTISGLQAEDEADYYCGTFAGGKYYGVFGGGTKLTVL
notes: full-length IgG
Molecule B4 yielded a dissociation constant (Kd) in experiment [4] of 0.0029 nM. For the same molecule, in experiment [13], the dissociation constant (Kd) came out at 0.0029 nM. The molecule further had a Kd in experiment [6] of 0.0277 nM. Besides, in experiment [7], the IC50, Myostatin SMAD RGA is 0.7 nM; the IC50 fold difference to bimagrumab, Myostatin SMAD RGA stood at 0.8 fold; the IC90, Activin SMAD RGA is 2.27 nM; the IC90, Myostatin SMAD RGA amounted to 14.4 nM. Moreover, in experiment [7], the IC90 fold difference to bimagrumab, Activin SMAD RGA was 4.1 fold; the IC90 fold difference to bimagrumab, Myostatin SMAD RGA was 0.9 fold; the IC95, Activin SMAD RGA is 4.97 nM; the IC95, Myostatin SMAD RGA is 55.2 nM. In experiment [7], this molecule registered an IC95 fold difference to bimagrumab, Activin SMAD RGA of 7.6 fold; an IC95 fold difference to bimagrumab, Myostatin SMAD RGA of 1 fold; an IC99, Activin SMAD RGA of 28.1 nM; an IC99, Myostatin SMAD RGA of 1240 nM. Further, in experiment [7], the IC99 fold difference to bimagrumab, Activin SMAD RGA is 29.6 fold and the IC99 fold difference to bimagrumab, Myostatin SMAD RGA amounted to 2.2 fold. Also, in [14], the IC50, Activin SMAD RGA came to 0.32 nM; the IC50 fold difference to bimagrumab, Activin SMAD RGA came to 1 fold; the IC90, Activin SMAD RGA was 3.02 nM; the IC90 fold difference to bimagrumab, Activin SMAD RGA stood at 2.1 fold. In [14], the IC95, Activin SMAD RGA was 7.07 nM; the IC95 fold difference to bimagrumab, Activin SMAD RGA amounted to 21.8 fold; the IC99, Activin SMAD RGA came out at 47.8 nM; the IC99 fold difference to bimagrumab, Activin SMAD RGA came out at 147 fold.

B5: Biiramooscht Fab (Fab, V domains shown)
VH: QVQLVQSGAEVKKPGASVKVSCKASGYTFTSSYINWVRQAPGQGLEWMGTINPVSGSTSYAQKFQGRVTMTRDTSISTAYMELSRLRSDDTAVYYCARGGWFDYWGQGTLVTVSS
VL: QSALTQPASVSGSPGQSITISCTGTSSDVGSYNYVNWYQQHPGKAPKLMIYGVSKRESGVSNRFSGSKSGNTASLTISGLQAEDEADYYCGTFAGGAYYGVFGGGTKLTVL
notes: Fab
In the case of B5, the equilibrium dissociation constant (Kd) in experiment [8] is 0.145 nM. Besides, the Kd in experiment [9] was found to be 0.021 nM. Besides, in [10], the IC50, Activin SMAD RGA worked out at 1.58 nM; the IC50, Myostatin SMAD RGA was found to be 2.09 nM; the IC50 fold difference (Fab:IgG), Activin SMAD RGA came to 7.4 fold; the IC50 fold difference (Fab:IgG), Myostatin SMAD RGA was 7.9 fold. For the same molecule, the “Fold difference (Fab:IgG)” value in experiment [11] was found to be 5.2 fold. Besides, in experiment [12], the “Fold difference (Fab:IgG)” value was 4.4 fold.

B6: Soidawürstle Fab (Fab, V domains shown)
VH: QVQLVQSGAEVRKPGSSVKVSCKASGYTFTSSYINWVRQAPGQGLEWMGTINPVSGSTSYAQKFQGRVTITADTSTSTAYMELSSLRSEDTAVYYCARGGWFDYWGQGTLVTVSS
VL: QSALTQPRSVSGSPGQSVTISCTGTSSDVGSYNRVNWYQQHPGKAPKLMIYGVSKRESGVPDRFSGSKSGNTASLTISGLQAEDEADYYCGTFAGGRYYGVFGGGTKLTVL
notes: Fab; also called Soidawüsrstel (Fab)
Regarding B6, the Kd in [4] came out at 0.0026 nM; in experiment [15], 0.011 nM; in experiment [16], 0.04 nM; in [17], 0.022 nM; in [18], 0.028 nM; in experiment [6], 0.0197 nM.

B7: Antibody Ochsamaulsalat (antibody, V domains shown)
VH: QVQLVQSGAEVKKPGASVKVSCKASGYTFTSSYINWVRQAPGQGLEWMGTINAVSGSTSYAQKFQGRVTMTRDTSISTAYMELSRLRSDDTAVYYCARGGWFDYWGQGTLVTVSS
VL: QSALTQPASVSGSPGQSITISCTGTSSDVGSRNYVNWYQQHPGKAPKLMIYGVSKRESGVSNRFSGSKSGNTASLTISGLQAEDEADYYCGTFAGGDYYGVFGGGTKLTVL
notes: full-length IgG
Consider B7, for which the dissociation constant Kd is 0.02 nM in [19]; 0.01 nM in experiment [20]; 0.02 nM in [8]; 0.01 nM in experiment [9]; 0.0232 nM in experiment [1]; 0.0082 nM in [2]. Further, the IC50, Myostatin SMAD RGA in [7] is 0.653 nM; in [10], 0.55 nM. Moreover, the IC90, Activin SMAD RGA in experiment [7] turned out to be 2.51 nM. The molecule also came in with an IC90, Myostatin SMAD RGA in experiment [7] of 5.59 nM. The same molecule gave an IC50, Activin SMAD RGA in experiment [10] of 0.43 nM.

These data come from US20250243286A1 (SIXPEAKS BIO, published 2025).
